{"source": "patent US20090220532A1", "about": "(PROYECTO DE BIOMEDICINA CIMA S L, published 2009)", "binders": {"B1": {"name": "EDA-SIINFEKL-6xHis fusion protein (recombinant proteinaceous vector) (ligand)", "chain": "MNIDRPKGLAFTDVDVDSIKIAWESPQGQVSRYRVTYSSPEDGIRELFPAPDGEDDTAELQGLRPGSEYTVSVVALHDDMESQPLIGIQSTQLESIINFEKLTEWAAALEHHHHHH"}}, "target": "human TLR4 (Toll-like receptor 4) on HEK293 cells expressing human TLR4-MD2-CD14 (human, UniProt O00206 24-839)", "sequence (O00206 24-839)": "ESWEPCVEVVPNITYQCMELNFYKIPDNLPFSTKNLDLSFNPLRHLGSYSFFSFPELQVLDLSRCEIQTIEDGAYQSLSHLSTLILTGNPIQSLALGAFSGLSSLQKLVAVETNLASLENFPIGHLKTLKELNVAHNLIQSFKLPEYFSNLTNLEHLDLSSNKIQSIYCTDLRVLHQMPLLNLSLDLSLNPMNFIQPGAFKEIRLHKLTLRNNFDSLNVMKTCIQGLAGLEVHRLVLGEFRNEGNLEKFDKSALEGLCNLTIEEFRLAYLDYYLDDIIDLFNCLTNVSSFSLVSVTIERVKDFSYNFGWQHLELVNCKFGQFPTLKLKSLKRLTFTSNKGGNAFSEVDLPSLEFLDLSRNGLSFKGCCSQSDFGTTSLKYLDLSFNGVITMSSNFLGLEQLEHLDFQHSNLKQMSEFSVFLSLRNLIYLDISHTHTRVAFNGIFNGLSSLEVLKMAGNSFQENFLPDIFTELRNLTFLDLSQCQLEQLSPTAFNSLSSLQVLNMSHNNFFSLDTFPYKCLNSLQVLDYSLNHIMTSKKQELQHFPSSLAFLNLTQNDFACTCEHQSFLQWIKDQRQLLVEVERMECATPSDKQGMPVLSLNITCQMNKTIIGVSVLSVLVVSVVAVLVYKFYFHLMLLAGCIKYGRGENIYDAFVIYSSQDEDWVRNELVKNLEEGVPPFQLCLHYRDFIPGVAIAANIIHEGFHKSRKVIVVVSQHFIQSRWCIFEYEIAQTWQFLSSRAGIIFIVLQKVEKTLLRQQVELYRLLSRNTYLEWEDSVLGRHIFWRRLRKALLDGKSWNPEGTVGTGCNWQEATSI", "assay": "cell-based or functional assay"}
{"binder": "B1", "values": [{"measurement": "fold NF-κB induction factor (SEAP reporter under NF-κB-inducible ELAM-1 promoter; OD of HEK293/TLR4-MD2-CD14 supernatants divided by OD of HEK293/LacZ supernatants), 100 nM EDA-SIINFEKL", "value": 7, "unit": "fold"}]}
